Measured values reported in patent EP4611795A1.

Assays:
[1] = target: human IgG (purified human IgG; IgG in human sera) (human); assay: cell-based or functional assay
[2] = target: human IgM (purified human IgM, MilliporeSigma; IgM in human sera) (human); assay: cell-based or functional assay
human IgM (purified human IgM, MilliporeSigma; IgM in human sera) (human), sequence (heavy, as listed by the source): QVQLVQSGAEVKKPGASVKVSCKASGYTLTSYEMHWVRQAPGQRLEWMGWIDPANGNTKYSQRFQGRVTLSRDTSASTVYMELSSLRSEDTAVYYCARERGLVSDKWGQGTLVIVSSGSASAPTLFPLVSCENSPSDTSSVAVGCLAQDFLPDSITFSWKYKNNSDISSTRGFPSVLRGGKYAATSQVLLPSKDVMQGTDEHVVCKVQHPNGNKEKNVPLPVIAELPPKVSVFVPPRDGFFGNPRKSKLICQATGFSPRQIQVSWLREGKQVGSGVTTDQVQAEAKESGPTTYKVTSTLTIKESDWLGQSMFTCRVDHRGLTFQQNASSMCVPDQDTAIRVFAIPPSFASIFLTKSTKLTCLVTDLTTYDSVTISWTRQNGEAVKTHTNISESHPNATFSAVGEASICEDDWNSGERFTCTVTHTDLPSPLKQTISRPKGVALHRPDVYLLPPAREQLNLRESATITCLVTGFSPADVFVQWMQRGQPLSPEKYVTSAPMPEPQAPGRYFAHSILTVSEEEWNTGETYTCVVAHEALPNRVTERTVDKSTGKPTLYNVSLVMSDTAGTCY

IceMG (recombinant His-tagged fusion protein of IceM and IdeZ proteolytic domains with the rigid linker) (enzyme)
EC50 of IceMG enzymatic activity on IgG in human sera [1]: 4.7 nM
EC50 of IceMG enzymatic activity on IgM in human sera [2]: 0.07 nM
